Molecular target: Aiolos (mouse) (UniProt O08900)
Test: cell-based or functional assay

Aiolos (mouse), sequence (O08900 other isoform, or with tags, fused parts or gaps limits assumed): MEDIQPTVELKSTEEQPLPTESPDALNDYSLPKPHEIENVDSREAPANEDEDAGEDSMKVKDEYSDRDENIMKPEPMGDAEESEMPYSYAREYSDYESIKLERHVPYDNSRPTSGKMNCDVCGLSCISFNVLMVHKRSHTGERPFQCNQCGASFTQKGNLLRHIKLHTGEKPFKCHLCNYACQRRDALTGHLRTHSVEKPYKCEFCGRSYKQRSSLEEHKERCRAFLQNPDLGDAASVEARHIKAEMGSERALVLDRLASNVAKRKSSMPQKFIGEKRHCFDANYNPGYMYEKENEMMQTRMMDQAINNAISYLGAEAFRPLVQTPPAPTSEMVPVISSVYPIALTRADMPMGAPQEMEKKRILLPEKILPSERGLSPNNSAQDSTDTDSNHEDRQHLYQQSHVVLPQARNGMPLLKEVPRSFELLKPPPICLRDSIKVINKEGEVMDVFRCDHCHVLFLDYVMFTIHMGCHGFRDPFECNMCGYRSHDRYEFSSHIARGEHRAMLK

- CAT activity from the 4xIK-BS1-tkCAT reporter in transfected NIH-3T3 cells: 65 % reduction
Substance: Ikaros isoform Ik-6 (from UniProt Q03267 1-288)

— patent US20050130265A1
